In patent US7285381:

Assays:
[1] = target: AAV2 capsid VP1 mutant B+L (insertion of the P1 peptide at the BsrBI cleavage site) (AAV2) (UniProt P03135); assay: A20 capsid ELISA on virus stock
[2] = target: AAV2 capsid VP1 mutant ΔBH+L (deletion between BsrBI and HindIII, and insertion of the P1 peptide) (AAV2) (UniProt P03135); assay: A20 capsid ELISA on virus stock
[3] = target: AAV2 capsid VP1 mutant ΔBH (deletion between BsrBI and HindIII cleavage sites of VP-1, 29 amino acids) (AAV2) (UniProt P03135); assay: A20 capsid ELISA on virus stock
[4] = target: AAV2 capsid VP1 mutant ΔXho (deletion between the XhoI-XhoI cleavage sites of VP-1, 62 amino acids) (AAV2) (UniProt P03135); assay: A20 capsid ELISA on virus stock
[5] = target: Wild-type AAV2 capsid (AAV2) (UniProt P03135); assay: A20 capsid ELISA on virus stock
[6] = target: AAV2 capsid VP3 mutant ins447 (insertion after amino acid 447, site YYLSR TNTPS) (AAV2) (UniProt P03135); assay: A20 capsid ELISA on virus stock
[7] = target: AAV2 capsid VP3 mutant ins587 (insertion after amino acid 587, site LQRGN RQAAT) (AAV2) (UniProt P03135); assay: A20 capsid ELISA on virus stock
[8] = target: Wild-type AAV2 capsid (AAV2) (UniProt P03135); assay: A20 capsid ELISA on CsCl-purified particles
[9] = target: AAV2 capsid mutant I-587 (P1 peptide inserted after amino acid 587) (AAV2) (UniProt P03135); assay: A20 capsid ELISA on CsCl-purified particles
[10] = target: AAV2 capsid mutant I-447 (P1 peptide inserted after amino acid 447) (AAV2) (UniProt P03135); assay: A20 capsid ELISA on CsCl-purified particles

A20 monoclonal antibody
capsid titer (ELISA with A20 MAb) [1]: 5e+09 particles/ml | capsid titer (ELISA with A20 MAb) [2]: 5e+10 particles/ml | capsid titer (ELISA with A20 MAb) [3]: 4e+09 particles/ml | capsid titer (ELISA with A20 MAb) [4]: 5e+10 particles/ml | capsid titer (ELISA with A20 MAb) [5]: 1e+11 particles/ml | capsid titer (ELISA with A20 MAb) [6]: 4e+10 particles/ml | capsid titer (ELISA with A20 MAb) [7]: 2e+10 particles/ml | titer (ELISA with A20 MAb) [8]: 6e+12 particles/ml | titer (ELISA with A20 MAb) [9]: 3e+12 particles/ml | titer (ELISA with A20 MAb) [10]: 8e+11 particles/ml
